Experimental data: paper doi:10.1101/2021.02.02.429361 (bioRxiv, 2021)
One block for each molecule: values may come before it.

Key:
[1] = target: T1, ABI5 (His-ABI5) (Arabidopsis thaliana) (UniProt Q9SJN0); experiment: EMSA
T1 sequence: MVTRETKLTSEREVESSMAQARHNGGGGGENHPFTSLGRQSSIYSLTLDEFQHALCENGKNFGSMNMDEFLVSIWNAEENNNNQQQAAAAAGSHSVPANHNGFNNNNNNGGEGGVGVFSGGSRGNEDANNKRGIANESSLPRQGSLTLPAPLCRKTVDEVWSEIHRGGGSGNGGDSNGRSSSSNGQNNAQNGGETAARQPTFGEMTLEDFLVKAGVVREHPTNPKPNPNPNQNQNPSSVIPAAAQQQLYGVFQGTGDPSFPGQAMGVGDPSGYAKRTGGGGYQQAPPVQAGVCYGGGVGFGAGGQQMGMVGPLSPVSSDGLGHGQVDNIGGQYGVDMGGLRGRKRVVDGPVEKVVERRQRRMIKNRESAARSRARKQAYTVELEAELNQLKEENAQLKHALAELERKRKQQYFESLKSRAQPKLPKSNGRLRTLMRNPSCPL

His-AtABI5 = target: T2, His-AtABI5 (Arabidopsis thaliana, UniProt Q9SJN0 1-442); experiment: pull-down
T2 sequence (looked up): T1 sequence

Molecule: AGTGTTATATAATTTTACGTAACGTAAAACAATACAAAATTTTAATTCCTGAACGAATAAAACGAGTATATTAATTAATTTATTGATCGTATTAAAACGAATATGATCCAATTAAGATTACAATTACTAAAATCCCCACACTATTATTGTCATTATTTAACTATGGCAGATAGATAGATACAGAACCGTAAAGGACGTTAGGAAGAGGAAGAACGTTGACGAAGTCAAC (double strand) [AtMPK3 promoter fragment (-402 to -256)]
binding [1]: binds

binding result (His-AtABI5): binds
B1: GST-AtMPK3 (enzyme, Arabidopsis thaliana, UniProt Q39023 1-370, looked up)
chain: MNTGGGQYTDFPAVETHGGQFISYDIFGSLFEITSKYRPPIIPIGRGAYGIVCSVLDTETNELVAMKKIANAFDNHMDAKRTLREIKLLRHLDHENIIAIRDVVPPPLRRQFSDVYISTELMDTDLHQIIRSNQSLSEEHCQYFLYQLLRGLKYIHSANIIHRDLKPSNLLLNANCDLKICDFGLARPTSENDFMTEYVVTRWYRAPELLLNSSDYTAAIDVWSVGCIFMELMNRKPLFPGKDHVHQMRLLTELLGTPTESDLGFTHNEDAKRYIRQLPNFPRQPLAKLFSHVNPMAIDLVDRMLTFDPNRRITVEQALNHQYLAKLHDPNDEPICQKPFSFEFEQQPLDEEQIKEMIYQEAIALNPTYG
